Assay results as given in paper doi:10.1101/218669.

Biological target: Pragmin 906-1368 (Pragmin C) (Rattus norvegicus) (UniProt D3ZMK9)
Assay: MALLS + DLS + SAXS

stoichiometry N: 2
Substance: Pragmin 906-1368 (Pragmin C) (from UniProt D3ZMK9 906-1368) (domain or fragment)
